Results as given in PMC11109316, “In vivo neutralization of coral snake venoms with an oligoclonal nanobody mixture in a murine challenge model” (Nature Communications, 2024).

B1: TPL0629_01_D11 (VHH)
VHH: QVQLQESGGGLVQAGGSLRLSCAGSGDALGSYTMGWFRQAPGGGRDLVAQISVDGSSTYHLDSVRGRFTASRDNAKNTVYLEMNSLNSEDTAVYYCAAAPLLRGNYDYWGQGTQVTVSS
notes: also called anti-αNTx VHH; monovalent VHH
B2: TPL0629_01_A07 (VHH)
VHH: QVQLQESGGGLVQAGGSLRLSCTASEGTVSYSTVGWFRQAPGGGRDLVAQSGSSDEDTHVAGSVKGRFTISRDNTNNTVYLQMSSLKPEDSAVYYCAAAPGDQYKYWGQGTQVTVSS
notes: also called anti-αNTx VHH
B3: TPL0629_01_G06 (VHH)
VHH: QVQLQESGGGLVQAGGSLRLSCAASGRAFSSYTMGWFRQAPGDMRELVAQITSSGSSTYHIDSVEGRFAISRDNAKNTVYLQMNSLQPEDAAIYYCAGGLNAYQYWGQGTQVTVSS
notes: also called anti-αNTx VHH

What follows are binders tested against T1, α-cobratoxin (Naja kaouthia, UniProt P01391) (assay: DELFIA (dose-response, capture format)). Conditions: both partners purified.
T1 construct: also called long chain αNTx from Naja kaouthia; source: bought: Latoxan

Q: Does B1 bind?
A: Result: no binding (tested: 1 µM)

Q: Does B2 bind?
A: Result: no binding (tested: 1 µM)

Q: Does B3 bind?
A: Result: no binding (tested: 1 µM)
